# Laboratory results from IntAct's records for PubMed 35152348.
# B1: Proline-serine-threonine phosphatase-interacting protein 1 (Homo sapiens), O43586 (parent)
# chain: MMPQLQFKDAFWCRDFTAHTGYEVLLQRLLDGRKMCKDMEELLRQRAQAEERYGKELVQIARKAGGQTEINSLRASFDSLKQQMENVGSSHIQLALTLREELRSLEEFRERQKEQRKKYEAVMDRVQKSKLSLYKKAMESKKTYEQKCRDADDAEQAFERISANGHQKQVEKSQNKARQCKDSATEAERVYRQSIAQLEKVRAEWEQEHRTTCEAFQLQEFDRLTILRNALWVHSNQLSMQCVKDDELYEEVRLTLEGCSIDADIDSFIQAKSTGTEPPAPVPYQNYYDREVTPLTSSPGIQPSCGMIKRFSGLLHGSPKTTSLAASAASTETLTPTPERNEGVYTAIAVQEIQGNPASPAQEYRALYDYTAQNPDELDLSAGDILEVILEGEDGWWTVERNGQRGFVPGSYLEKL
# partner: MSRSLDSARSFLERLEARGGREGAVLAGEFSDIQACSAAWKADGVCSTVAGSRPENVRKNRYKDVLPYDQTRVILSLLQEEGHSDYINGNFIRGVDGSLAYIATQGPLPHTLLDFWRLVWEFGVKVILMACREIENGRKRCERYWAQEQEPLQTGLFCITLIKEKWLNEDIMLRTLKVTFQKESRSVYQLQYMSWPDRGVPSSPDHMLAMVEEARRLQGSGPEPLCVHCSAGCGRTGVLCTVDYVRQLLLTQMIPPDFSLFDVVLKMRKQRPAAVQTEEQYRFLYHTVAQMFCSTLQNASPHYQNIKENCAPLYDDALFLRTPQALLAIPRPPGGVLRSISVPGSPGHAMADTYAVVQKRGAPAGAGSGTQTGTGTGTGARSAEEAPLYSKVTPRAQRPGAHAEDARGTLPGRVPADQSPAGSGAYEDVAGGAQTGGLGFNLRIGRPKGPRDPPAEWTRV
# B2: Tyrosine-protein phosphatase non-receptor type 22 (Homo sapiens), Q9Y2R2-1 (parent)
# chain: MDQREILQKFLDEAQSKKITKEEFANEFLKLKRQSTKYKADKTYPTTVAEKPKNIKKNRYKDILPYDYSRVELSLITSDEDSSYINANFIKGVYGPKAYIATQGPLSTTLLDFWRMIWEYSVLIIVMACMEYEMGKKKCERYWAEPGEMQLEFGPFSVSCEAEKRKSDYIIRTLKVKFNSETRTIYQFHYKNWPDHDVPSSIDPILELIWDVRCYQEDDSVPICIHCSAGCGRTGVICAIDYTWMLLKDGIIPENFSVFSLIREMRTQRPSLVQTQEQYELVYNAVLELFKRQMDVIRDKHSGTESQAKHCIPEKNHTLQADSYSPNLPKSTTKAAKMMNQQRTKMEIKESSSFDFRTSEISAKEELVLHPAKSSTSFDFLELNYSFDKNADTTMKWQTKAFPIVGEPLQKHQSLDLGSLLFEGCSNSKPVNAAGRYFNSKVPITRTKSTPFELIQQRETKEVDSKENFSYLESQPHDSCFVEMQAQKVMHVSSAELNYSLPYDSKHQIRNASNVKHHDSSALGVYSYIPLVENPYFSSWPPSGTSSKMSLDLPEKQDGTVFPSSLLPTSSTSLFSYYNSHDSLSLNSPTNISSLLNQESAVLATAPRIDDEIPPPLPVRTPESFIVVEEAGEFSPNVPKSLSSAVKVKIGTSLEWGGTSEPKKFDDSVILRPSKSVKLRSPKSELHQDRSSPPPPLPERTLESFFLADEDCMQAQSIETYSTSYPDTMENSTSSKQTLKTPGKSFTRSKSLKILRNMKKSICNSCPPNKPAESVQSNNSSSFLNFGFANRFSKPKGPRNPPPTWNI
# B3: Proline-serine-threonine phosphatase-interacting protein 1 (Homo sapiens), O43586 (parent)
# chain: B1 chain
# partner: B2 chain
# B4: Proline-serine-threonine phosphatase-interacting protein 1 (Homo sapiens), O43586 (parent)
# chain: B1 chain
# partner: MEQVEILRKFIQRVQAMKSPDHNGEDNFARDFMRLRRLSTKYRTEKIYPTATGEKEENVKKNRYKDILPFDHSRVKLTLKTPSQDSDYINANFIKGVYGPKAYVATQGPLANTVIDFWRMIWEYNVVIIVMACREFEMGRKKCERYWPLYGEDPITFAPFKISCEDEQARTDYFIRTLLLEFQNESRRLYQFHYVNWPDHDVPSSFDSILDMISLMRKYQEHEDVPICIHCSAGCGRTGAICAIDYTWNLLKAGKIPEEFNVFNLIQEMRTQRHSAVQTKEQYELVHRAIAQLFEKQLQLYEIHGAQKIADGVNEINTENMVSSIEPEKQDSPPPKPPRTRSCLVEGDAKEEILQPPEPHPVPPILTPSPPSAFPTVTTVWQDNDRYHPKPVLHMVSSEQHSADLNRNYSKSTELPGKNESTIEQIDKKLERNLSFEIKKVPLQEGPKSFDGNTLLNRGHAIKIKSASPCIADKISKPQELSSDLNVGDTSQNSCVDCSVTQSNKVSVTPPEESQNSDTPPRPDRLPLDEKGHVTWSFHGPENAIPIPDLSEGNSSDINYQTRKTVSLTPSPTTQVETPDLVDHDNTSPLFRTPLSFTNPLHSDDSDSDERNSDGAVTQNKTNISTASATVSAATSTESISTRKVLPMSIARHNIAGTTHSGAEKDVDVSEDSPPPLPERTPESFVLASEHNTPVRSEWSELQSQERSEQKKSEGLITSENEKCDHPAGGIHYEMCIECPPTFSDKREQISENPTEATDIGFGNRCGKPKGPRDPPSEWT
# Variants of: B1
# Details: with ptn18_human PTPN18, Q99952
row,Variant,effect of a mutation on the interaction
1,E250K,disrupting interaction strength
2,D266N,with no effect
3,E257K,disrupting interaction strength
4,G258A,with no effect

# Results, then the variant that gave them:
row,effect of a mutation on the interaction,Variant
1,with no effect,T274M
2,decreasing interaction strength,E250Q
3,with no effect,A230T
4,disrupting interaction strength,R228C
5,disrupting interaction strength,W232A
6,with no effect,E257G
7,with no effect,Q219H
8,decreasing interaction strength,D246N

# Variants of: B2
# Details: with ppip1_human PSTPIP1, O43586
row,effect of a mutation on the interaction,Variant
1,decreasing interaction strength,R799A
2,decreasing interaction strength,W805A

# Variants of: B3
# Details: with PTPN22, Q9Y2R2-1
row,Variant,effect of a mutation on the interaction
1,D384G,with no effect
2,R405C,with no effect
3,E257K,decreasing interaction strength
4,D289H,with no effect
5,A230T,with no effect
6,G403E,with no effect
7,V122I,with no effect
8,T274M,with no effect

# Next, values leading:
row,effect of a mutation on the interaction,Variant
1,disrupting interaction strength,R228C
2,with no effect,Y345C
3,with no effect,T68M
4,decreasing interaction strength,D246N
5,with no effect,E277D
6,with no effect,E257G
7,with no effect,R52Q
8,with no effect,D266N
9,disrupting interaction strength,W232A
10,with no effect,Q219H
11,with no effect,V344I
12,decreasing interaction strength,E250Q
13,disrupting interaction strength,E250K
14,with no effect,G403R
15,with no effect,G258A

# Variants of: B3
# Details: with PTPN22, Q9Y2R2-1
# Remark: another data set of the same source
row,effect of a mutation on the interaction,Variant
1,decreasing interaction strength,R228C
2,decreasing interaction strength,E257G
3,decreasing interaction strength,E250K

# Variants of: B3
# Details: with PTPN22, Q9Y2R2-1
# Remark: another data set of the same source
row,effect of a mutation on the interaction,Variant
1,decreasing interaction strength,W232A

# Variants of: B4
# Details: with ptn12_human PTPN12, Q05209
row,Variant,effect of a mutation on the interaction
1,E250K,disrupting interaction strength
2,D266N,with no effect
3,E257K,disrupting interaction strength
4,Q219H,with no effect
5,W232A,disrupting interaction strength
6,D246N,with no effect
7,T274M,with no effect

# More lines, now with the values ahead:
row,effect of a mutation on the interaction,Variant
1,disrupting interaction strength,R228C
2,with no effect,A230T
3,decreasing interaction strength,E250Q
4,with no effect,E257G
5,with no effect,G258A
